Measurements reported in patent US20240117030A1 (Pfizer, published 2024).
Like-named read-outs stand apart in the source and are kept apart here. One block for each binder: values may come before it.

Experiments:
[1] = biological target: T1, IL-33 mm2 (human, UniProt O95760 112-270, limits assumed); experiment: cell-based or functional assay
T1 sequence (looked up): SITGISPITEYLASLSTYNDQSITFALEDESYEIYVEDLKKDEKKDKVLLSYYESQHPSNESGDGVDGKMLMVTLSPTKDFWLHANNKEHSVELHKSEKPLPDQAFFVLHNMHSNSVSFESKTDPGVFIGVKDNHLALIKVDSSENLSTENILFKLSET

[2] = biological target: T2, recombinant human IL-33 (human, UniProt O95760 112-270, limits assumed); experiment: cell-based or functional assay
T2 sequence (looked up): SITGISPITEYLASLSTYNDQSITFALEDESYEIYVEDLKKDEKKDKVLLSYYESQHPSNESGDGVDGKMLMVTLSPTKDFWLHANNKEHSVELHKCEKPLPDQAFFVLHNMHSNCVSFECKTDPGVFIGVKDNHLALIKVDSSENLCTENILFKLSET

[3] = biological target: T3, recombinant human IL-33 (R&D Systems 3625-IL), reduced with DTT (human, UniProt O95760 112-270, limits assumed); experiment: cell-based or functional assay
T3 sequence (looked up): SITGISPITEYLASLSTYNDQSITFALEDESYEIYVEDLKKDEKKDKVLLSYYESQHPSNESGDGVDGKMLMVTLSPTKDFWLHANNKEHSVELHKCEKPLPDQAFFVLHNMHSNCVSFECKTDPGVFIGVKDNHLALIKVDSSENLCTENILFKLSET

[4] = biological target: T4, biotinylated human IL-33 wild-type (WT), reduced with 3 mM DTT (human, UniProt O95760 112-270, limits assumed, biotinylated (site not stated)); experiment: KinExA solution affinity, fixed antigen format, global fit
T4 sequence (looked up): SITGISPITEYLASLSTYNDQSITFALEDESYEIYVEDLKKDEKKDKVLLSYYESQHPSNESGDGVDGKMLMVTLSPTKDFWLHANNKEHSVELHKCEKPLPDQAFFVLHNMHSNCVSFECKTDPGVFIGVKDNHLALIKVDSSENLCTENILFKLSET

[5] = biological target: T3, recombinant human IL-33 (R&D Systems …); experiment: cell-based or functional assay; remark: listed apart in the source
[6] = biological target: T5, human IL-33 mm2 Cys (human, UniProt O95760 112-270, limits assumed); experiment: cell-based or functional assay
T5 sequence (looked up): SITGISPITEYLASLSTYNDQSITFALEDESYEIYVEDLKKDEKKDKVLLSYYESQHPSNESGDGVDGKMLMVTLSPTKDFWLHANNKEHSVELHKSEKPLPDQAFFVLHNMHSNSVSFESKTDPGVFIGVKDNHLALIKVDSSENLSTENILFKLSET

[7] = biological target: T3, recombinant human IL-33 (R&D Systems …); experiment: cell-based or functional assay; remark: listed apart in the source
[8] = biological target: T6, recombinant human IL-4 (human, UniProt P05112 25-153); experiment: cell-based or functional assay
T6 sequence (looked up): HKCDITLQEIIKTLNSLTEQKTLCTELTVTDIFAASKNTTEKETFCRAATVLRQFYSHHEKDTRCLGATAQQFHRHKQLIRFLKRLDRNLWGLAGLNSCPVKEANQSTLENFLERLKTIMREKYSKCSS

[9] = biological target: T7, recombinant cynomolgus monkey IL-4 (cynomolgus monkey, UniProt P79339 25-153); experiment: cell-based or functional assay
T7 sequence (looked up): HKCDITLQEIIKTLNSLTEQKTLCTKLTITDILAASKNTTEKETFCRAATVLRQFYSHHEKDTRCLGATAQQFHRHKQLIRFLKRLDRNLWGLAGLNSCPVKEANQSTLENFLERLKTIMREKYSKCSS

[10] = biological target: T6, recombinant human IL-4; experiment: KinExA, fixed antigen format
[11] = biological target: T7, recombinant cynomolgus monkey IL-4; experiment: KinExA, fixed antigen format
[12] = biological target: T8, recombinant human IL-13 (human, UniProt P35225 35-146); experiment: KinExA, fixed antigen format
T8 construct: Recombinant cytokine from R&D Systems or Pfizer; treated as one molecule; also called rHu IL-13

[13] = biological target: T9, recombinant cynomolgus monkey IL-13 (cynomolgus monkey, UniProt Q0PW92 19-132); experiment: KinExA, fixed antigen format
T9 construct: also called Cyno IL-13

[14] = biological target: T6, recombinant human IL-4; experiment: cell-based or functional assay; remark: listed apart in the source
[15] = biological target: T8, recombinant human IL-13; experiment: cell-based or functional assay
[16] = biological target: T6, recombinant human IL-4; experiment: cell-based or functional assay; remark: listed apart in the source
[17] = biological target: T8, recombinant human IL-13; experiment: cell-based or functional assay; remark: listed apart in the source
[18] = biological target: T9, recombinant cynomolgus monkey IL-13; experiment: cell-based or functional assay
[19] = biological target: T8, recombinant human IL-13; experiment: cell-based or functional assay; remark: listed apart in the source

T8 sequence (P35225 35-146 limits assumed): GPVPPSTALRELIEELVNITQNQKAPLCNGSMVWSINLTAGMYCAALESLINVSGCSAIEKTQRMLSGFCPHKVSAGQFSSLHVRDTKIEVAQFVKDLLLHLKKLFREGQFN
T9 sequence (Q0PW92 entry or part of it limits assumed): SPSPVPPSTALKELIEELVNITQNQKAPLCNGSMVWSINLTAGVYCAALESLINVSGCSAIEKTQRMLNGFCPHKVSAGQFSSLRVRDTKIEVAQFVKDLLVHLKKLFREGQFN

IC50 (mean), IFNg Whole Blood (IL-12 plus IL-33 mm2-Cys) [1]: 0.0162 nM | IC50 (mean), HEK-Blue IL-33 SEAP [2]: 0.0562 nM
B1: IL33-158LS (antibody, V domains shown)
VH: EVQLVESGGGLVQPGGSLRLSCAASGFTFSSYWMYWVRQAPGKGLEWVAAITPNAGEDYYPESVKGRFTISRDNAKNSLYLQMNSLRAEDTAVYYCARGHYYYTSYSLGYWGQGTLVTVSS
VL: DIQMTQSPSSLSASVGDRVTITCKASQNINKHLDWYQQKPGKAPKLLIYFTNNLQTGVPSRFSGSGSGTDFTLTISSLQPEDFATYYCFQYNQGWTFGGGTKVEIK

IC50 [nM] versus reduced human IL-33 (R&D), IC50 (AVE) [3]: 0.109 nM | Kd [4]: 0.0034 nM | IC50 [nM] versus reduced human IL-33 (R&D), IC50 (AVE) [5]: 0.071 nM | IC50 [pM] versus human IL-33 mm2 Cys (HEK-Blue SEAP) [6]: 142 pM | IC50 [pM] versus human reduced IL-33 (R&D), Experiment 1 (HEK-Blue SEAP) [7]: 35 pM
B2: IL33-0232 (antibody, human IgG1, kappa, V domains shown)
VH: EVQLVESGGGLVQPGGSLRLSCAASGFTFSSYWMYWVRQAPGKGLEWVAAITPNAGEDYYPESVKGRFTISRDNAKNSLYLQMNSLRAEDTAVYYCARGHYYYTSYSLGYWGQGTLVTVSS
VL: DIQMTQSPSSLSASVGDRVTITCKASQNINKHLDWYQQKPGKAPKLLIYFTNNLQTGVPSRFSGSGSGTDFTLTISSLQPEDFATYYCFQYNQGWTFGGGTKVEIKR

IC50 (median), CD23 expression, Human Whole Blood [8]: 0.0236 nM | IC50 (median), CD23 expression, Peripheral Blood Monocytes [8]: 0.00827 nM | IC50 (median), CD23 expression, Human Whole Blood [9]: 0.0164 nM | IC50 (median), CD23 expression, Peripheral Blood Monocytes [9]: 0.0101 nM | Kd [10]: 0.000323 nM | Kd [11]: < 0.000661 nM | Kd [12]: 0.000266 nM | Kd [13]: 0.000581 nM | IC50 (median), IL-4 induced CD23 expression on human monocytes [14]: 0.00827 nM | IC50 (median), IL-13 induced CD23 expression on human monocytes [15]: 0.013 nM | IC50 (median), IL-4 induced CD23 expression on human monocytes [16]: 0.00827 nM | IC50 (median), CD23 expression, Human Whole Blood [17]: 0.0102 nM | IC50 (median), CD23 expression, Peripheral Blood Monocytes [17]: 0.013 nM | IC50 (median), CD23 expression, Human Whole Blood [18]: 0.0419 nM | IC50 (median), CD23 expression, Peripheral Blood Monocytes [18]: 0.0316 nM | IC50 (median), IL-13 induced CD23 expression on human monocytes [19]: 0.013 nM
B3: IL413TSLP-1024 (other)
heavy: not shown
chain 1: DIQMTQSPSSLSASVGDRVTITCKASESVDHFGWSLVHWYQQKPGKAPKLLIYRASNLESGVPSRFSGSGSGTDFTLTISSLQPEDFATYYCQQSNEDPWTFGGGTKVEIKRTVAAPSVFIFPPSDEQLKSGTASVVCLLNNFYPREAKVQWKVDNALQSGNSQESVTEQDSKDSTYSLSSTLTLSKADYEKHKVYACEVTHQGLSSPVTKSFNRGECGGGGSEVTLRESGPALVKPTQTLTLTCTFSGFSLSNFGEGLSWIRQPPGKGLEWLAHIYWDDDKRYNPSLKSRLTISKDTSRNQVVLTMTNMDPVDTATYYCARRETVFYWYFDVWGQGTTVTVSSASTKGPSVFPLAPSSKSTSGGTAALGCLVKDYFPEPVTVSWNSGALTSGVHTFPAVLQSSGLYSLSSVVTVPSSSLGTQTYICNVNHKPSNTKVDKKVEPKSCEKTHTCPPCPAPEAAGAPSVFLFPPKPKDTLMISRTPEVTCVVVDVSHEDPEVKFNWYVDGVEVHNAKTKPREEQYNSTYRVVSVLTVLHQDWLNGKEYKCKVSNKALPAPIEKTISKAKGQPREPQVYTLPPSREEMTKNQVSLTCEVKGFYPSDIAVEWESNGQPENNYKTTPPVLDSDGSFFLYSKLTVDKSRWQQGNVFSCSVLHEALHSHYTQKSLSLSPGK
light 1: SYVLTQPPSVSVAPGQTARITCGGNNLGSKSVHWYQQKPGQAPVLVVYDDKDRPSWIPERFSGSNSGNTATLTISRGEAGDEADYYCQVWDSKSDHVVFGGGTKLTVLGQPKAAPSVTLFPPSSEELQANKATLVCLISDFYPGAVTVAWKADSSPVKAGVETTTPSKQSNNKYAASSYLSLTPEQWKSHRSYSCQVTHEGSTVEKTVAPTECS
light 2: DIQMTQSPSSLSASVGDRVTITCRASQSVDEEGDSYMNWYQQKPGKAPKLLIYAASNLESGVPSRFSGSGSGTDFTLTISSLQPEDFATYYCQQSNKDPPTFGGGTKVEIKRTVAAPSVFIFPPSDEQLKSGTASVVCLLNNFYPREAKVQWKVDNALQSGNSQESVTEQDSKDSTYSLSSTLTLSKADYEKHKVYACEVTHQGLSSPVTKSFNRGEC
chain 2: EVQLVESGGGLVQPGGSLRLSCAASGFTFSSYAMSWVRQAPGKGLEWVASISSGDTTYYPDSVKGRFTISRDNAKNSLYLQMNSLRAEDTAVYYCARNEGYYFGLTLWGQGTLVTVSSASTKGPSVFPLAPSSKSTSGGTAALGCLVKDYFPEPVTVSWNSGALTSGVHTFPAVLQSSGLYSLSSVVTVPSSSLGTQTYICNVNHKPSNTKVDKKVEPKSC
notes: Trispecific Tri-Fab-Fc, dual cell, RR-EE, LS; Chains in order: SFab HC(3), DFab LC(1)-HC(2), SFab LC(3), DFab LC(2), modified Fd(1)
